This note sets out measurements from patent publication CN116023497A (WEST CHINA HOSPITAL SICHUAN UNIV, dated 2023).

The term koff denotes a measure of how fast the partners let go of each other. Read a high koff as a short-lived complex. A word on the kon: it is the rate constant with which the complex forms. Read a low kon as slower complex formation. In general, Kd refers to the concentration at which binding is half-saturated. The low end stands for a tighter complex, the high end for a looser complex.

The target in one assay is T1, DDR2胞外段 (UniProt Q16832 22-399).
T1 construct: range 22-399; also called DDR2 ECD
T1 sequence (looked up): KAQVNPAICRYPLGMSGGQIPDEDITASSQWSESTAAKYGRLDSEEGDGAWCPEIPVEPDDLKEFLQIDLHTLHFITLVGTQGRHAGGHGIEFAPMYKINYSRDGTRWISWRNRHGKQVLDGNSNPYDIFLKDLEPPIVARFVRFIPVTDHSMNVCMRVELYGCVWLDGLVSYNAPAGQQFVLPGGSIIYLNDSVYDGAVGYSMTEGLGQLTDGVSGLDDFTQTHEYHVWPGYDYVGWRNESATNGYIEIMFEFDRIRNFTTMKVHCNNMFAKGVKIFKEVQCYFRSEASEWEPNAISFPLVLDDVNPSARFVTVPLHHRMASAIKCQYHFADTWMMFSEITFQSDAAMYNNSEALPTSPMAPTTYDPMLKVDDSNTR
Briefly: ELISA, coated DDR2 ECD, dilution series of Tytug. Background: ELISA stands for enzyme-linked immunosorbent assay.

For assay [1], the target named is T2, DDR1胞外段(DDR1 ECD), His标签 (human).
T2 chain: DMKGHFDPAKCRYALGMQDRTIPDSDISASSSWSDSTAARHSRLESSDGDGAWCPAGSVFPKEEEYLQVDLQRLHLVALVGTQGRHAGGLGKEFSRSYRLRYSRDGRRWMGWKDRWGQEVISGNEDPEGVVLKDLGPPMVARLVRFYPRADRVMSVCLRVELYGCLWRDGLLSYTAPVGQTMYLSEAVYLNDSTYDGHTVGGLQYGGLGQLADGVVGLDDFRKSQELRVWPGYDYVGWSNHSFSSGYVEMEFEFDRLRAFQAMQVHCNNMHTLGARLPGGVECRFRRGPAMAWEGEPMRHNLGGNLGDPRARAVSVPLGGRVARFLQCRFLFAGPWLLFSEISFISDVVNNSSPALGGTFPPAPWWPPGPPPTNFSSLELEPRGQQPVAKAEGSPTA
Briefly: SPR (Biacore), 1:1 model; His-tagged DDR1 ECD on NTA chip, Tytug as analyte. On the technique in general: Surface plasmon resonance follows binding to a sensor surface in real time, without labels.

Assay [2] deals with T2, DDR1胞外段(DDR1 ECD), His标签. The assay is described as follows: SPR (Biacore), 1:1 model; His-tagged DDR1 ECD on NTA chip, Tytug as analyte; exponent printed without minus sign, kd/ka gives 2.26e-10.

B1: Tytug抗体 (antibody, IgG1, V domains shown)
VH: QVQLQQPGAELVRPGSSVRLSCKASGYSFTSYWMNWVKQRPGQGLEWIGMIHPSDSKTRLDQKFKDKATLTVDKSSSTAYMQLSSPTSEDSAVYYCAREGTYYYAMDFWGQGTSVTVSS
VL: DVLMTQTPLSLPVSLGDQASISCRSSQTIVHSNGNTYLEWYLQKPGQSPKLLIYKVSNRFSGVPDRFSGSGSGTDFTLKISRVEAEDLGVYYCFQGSHDPYTFGGGTKLEIK
notes: Mouse hybridoma monoclonal antibody; also called T4-E11-F10; T4-E11-F10(Tytug)
Turning to B1, the binding result in the assay with DDR2胞外段 is given as “no binding”. Also, in the assay with DDR1胞外段(DDR1 ECD), His标签 [1], the koff was 4.66e-05 s⁻¹ and the kon was 207000 M⁻¹ s⁻¹. In the assay with DDR1胞外段(DDR1 ECD), His标签 [2], the dissociation constant (Kd) came out at 0.226 nM.
